These results are taken from a protein production outcome set (Wang et al. 2014).
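Note: failed if final PepcDB status was selected cloned or expressed and not failed if soluble or beyond.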

The series in a line: label from the status in PepcDB records.
Regarding “MDWGTELWDQFEVLERHTQWGLDLLDRYVKFVKERTEVEQAYAKQLRSLVKKYLPKRPAKDDPESKFSQQQSFVQILQEVNDFAGQRELVAENLSVRVCLELTKYSQEMKQERKMHFQEGRRAQQQLENGFKQLENSKRKFERDCREAEKAAQTAERLDQDINATKADVEKAKQQAHLRSHMAEESKNEYAAQLQRFNRDQAHFYFSQMPQIFDKLQDMDERRATRLGAGYGLLSEAELEVVPIIAKCLEGMKVAANAVDPKNDSHVLIELHKSGFARPGDVEFEDFSQPMNRAPSDSSLGTPSDGRPELRGPGRSRTKRWPFGKKNKTVVTEDFSHLPPEQQRKRLQQQLEERSRELQKEVGQREALKKMKDVYEKTPQMGDSASLEPQIAETLSNIERLKLEVQKYEAWLAEAESRVLSNRGDSLSRHARPPDPPASAPPDSSSNSASQDTKESSEEPPSEESQDTPIYTEFDEDFEEEPTSPIGHCVAIYHFEGSSEGTISMAEGEDLSLMEEDKGDGWTRVRRKEGGEGYVPTSYLRVTLN”, the protein production entry is “not failed”. “MDWTMISGSRDESLHAARDYWRRLNESECFDIEGIEAPPGAIALIPYDCQLPNSFHPLPLWVKLYASAGLHRFNMLEVLVNERSVGKLNIIVPIARPKGVTTNERFIPCDCFSVDDKLPQWPSHDSFNDRKRFYSVKESELQNNDWINLYLELVLCAIQKVRISDSDLSKLKIVKAVIETKEDMVPPNERLNAKTAVVYITFKGLANARIAAGEHYERKAIIRRIFNEHTGHLSLLGDLIGEKKFVNIDPVTYFNSPAYLEDITHELPPESPWMDILAGTGSMDQID”: the protein production result is reported as “failed”. For “MDYPDLAPRARSWAPHLLGVLRIVAAFLFLQFGTAKLFAFPGPVMPGGGTAPLASLAGIAGAIEAFGGALLLVGLFSRPVAFLLSGEMAVAYFYGHAPQGFWPVLNQGTPAALFAFVFLYLAAAGPGRFSLDGLRGKDAP”, the protein production result is given as “failed”. With “MDYSQFLYMKEELSLIAVILILFVVDLLTCPDQKGATPKVNVRSLTLPAVILMTLHTVINLFPGTPAEAFGGMYQYTPMQTIIKAVLNVGTIIVLLMAHEWLKREDTRIKQGEFYVLTLSTLLGMYFMISAGHFLMFFIGLEMASIPMAALVAFDKYRHHSAEAGAKYILTALFSSALLLFGLSMIYGTSGTLYFNDLPGHITGNMLQIMAFVFFFAGMGFKISLVPFHLWTADVYEGAPTAVTSYLSVISKGSAAFVLMTILMKVFAPMVAQWQEVLFWVTIASITIANLFAIRQQNLKRFMAFSAISQAGYIMLGVIGGSEMGMTALVYYVLVYLAANLGVFAVISIVEQRSNKVEIDDYNGLYKTNPKLAFIMTLALFSLAGIPPFAGFFSKFFIFMAAFNSGFHLLVFIALINTVVSLYYYLLIVKAMYINPNEEPIPTFRSDNYTKVSLVLCTLGIIALGIASCIYQGIDKFSFGMGM” the entry was “failed”; with “MEADRGRNNKVRCAVVDTNVLMYVYLNKADVVGQLREFGFSRFLITASVKRELEKLEMSLRGKEKVAARFALKLLEHFEVVETESEGDPSLIEAAEKYGCILITNDKELKRKAKQRGIPVGYLKEDKRVFVELLD”, “not failed”. Next, “MEALAELIKRKVPNEGLIIEVGVGFYLKVAKKLKEYGFNVVVVDINQEAVKNAIKERIPGFVDDVFNPNLKIYLKARAIYSIRPNPEIMMALLTLAKKVKVPLYIVPLSGDVPPREMKLINYKGISVYVWEP”: “failed”.
